In paper PMC11790970 one finds stoichiometry N and pKa data, which are given here for four molecules.

Series [1] deals with actinorhodopsin from Rhodoluna lacicola strain MWH-Ta8 (Rhodoluna lacicola strain MWH-Ta8). As to the kind of experiment: cryo-EM structure; single particle analysis, 2D classification, 4 Å projection structure from 53,376 particles; protein purified in 0.25% (w/v) Cymal-5, 2.5 mg/mL.
For series [2] the target is unchanged. As to the kind of experiment: SEC; Superdex 200 Increase 10/300 GL; 20 mM BTP-HCl pH 7.5, 150 mM NaCl, 0.25% (w/v) Cymal-5; sample at about 0.75-1.5 mg/mL; column calibrated with molecular weight markers.
Series [3] deals with Asp97. To be noted: cited from earlier work.
The target in series [4] is Asp85 (UniProt position 98, WARYADWLFTT). To be noted: cited from earlier work.
Series [5] concerns the target Asp92 (position 92, …). As to the kind of experiment: UV-vis. To be noted: not stated (pH adjusted at room temperature), 150 mM NaCl plus 100 mM acetate buffer, with residual HEPES-NaOH from a 5 mM stock diluted 5-fold, Detergent-solubilised, retinal-bound oligomeric RlActR at 0.2 mg/mL, whether the sample was light- or dark-adapted is not stated.

With “actinorhodopsin from Rhodoluna lacicola strain MWH-Ta8 (natural protein)”, the stoichiometry N in series [1] and in series [2] was 5 in each case.
“Green-light absorbing proteorhodopsin (GPR) (uncultured marine gamma-proteobacterium)”: the pKa result in series [3] was “∼7.5”.
On to “Bacteriorhodopsin (BR) (Halobacterium salinarum)”, for which the pKa result in series [4] is reported as “∼2.6”.

B1: Actinorhodopsin RlActR (Rhodoluna lacicola (strain MWH-Ta8)) (protein)
chain: MNTLSNALDNGQFNLVYNILSLGIASMLFTAIFLFVARERVLPRYRIAVMVSATVTAIAAYHYFRMFDNFSHAFAGAENNPDAYNVGYRYVDWLLTVPLLLVELVAVLALAKAAQSSILNRLVPAAAAMIVLGYPGDAKLDIWGIAPSVWGLLSTIPFLYILYVLFIELGKSLSRQSEAVQKKVKILRLLLIATWGVYPITFILAMGTPPGAPFNASEFVAREVGYSIADILAKCLFGLIIYSIARIKSAEDDKEFAKAEFKDALEGHHHHH
Turning to B1, the pKa in series [5] was determined as 5.6.
